Source: the supplement of paper PMC7877785
± gives the uncertainty stated by the source.

Assay: self-splicing fitness, log relative to wild type (ln ratio); higher = more splicing; Tetrahymena group I intron in knt gene, E. coli kanamycin selection, DiMSum; sequences stand for … in CUCUCU…GGAGGGAAAAGUUAUCAGGCAUGCACCUGGUAGCUAGUCUUUAAACCAAUAGAUUGCAUCGGUUUAAAAGGCAAGACCGUCAAAUUGCGGGAAAGGGGUCAACAGCCGUUCAGUACCAAGUCUCAGGGGAAACUUUGAGAUGGCCUUGCAAAGGGUAUGGUAAUAAGCUGACGGACAUGGUCCUAACCACGCAGCCAAGUCCUAAGUCAACAGAUCUUCUGUUGAUAUGGAUGCAGUUCACAGACUAAAUGUCGGUCGGGGAAGAUGUAUUCUUCUCAUAAGAUAUAGUCGGACCUCUCCUUAAUGGGAGCUAGCGGAUGAAGUGAUGCAACACUGGAGCCGCUGGGAACUAAUUUGUAUGCGAAAGUAUAUUGAUUAGUUUUGGAGUACUCGUGGUCG
Method in brief: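 Pooled colonies went to amplicon sequencing on an Illumina HiSeq 2500 after six replicate transformations. The plates were LB agar with 100 μg/mL carbenicillin, 50 μM IPTG and 0.2% rhamnose, with or without 25 μg/mL kanamycin, incubated overnight at 37°C or 30°C. The E. coli BL21(DE3) library had all eight P1ex-region intron nucleotides randomised, the intron placed in the knt kanamycin-resistance gene on pET-22b(+). DiMSum fitness is the error-weighted combination of replicate fold changes, kanamycin against none, normalised to wild type.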

Question: For GAACAGCAAUAUUACGCUCG, which “self-splicing fitness (ln)” value (30 °C) is on record?
Answer: -0.797 ± 0.1

Question: And the “self-splicing fitness (ln)” value (37 °C)?
Answer: -0.128 ± 0.15

Question: For GAACAGCAAUAUUACGGACA, which “self-splicing fitness (ln)” value (30 °C) is on record?
Answer: -1.3 ± 0.1

Question: And the “self-splicing fitness (ln)” value (37 °C)?
Answer: -0.732 ± 0.09

Question: With GAACAGCAAUAUUACGGACC as the sequence, how does the “self-splicing fitness (ln)” value (30 °C) read?
Answer: -0.915 ± 0.12

Question: What about the “self-splicing fitness (ln)” value (37 °C) of the same sequence?
Answer: 0.0387 ± 0.14

Question: Which “self-splicing fitness (ln)” value (30 °C) does the source give for GAACAGCAAUAUUACGGGGA here?
Answer: -1.6 ± 0.087

Question: And the “self-splicing fitness (ln)” value (37 °C)?
Answer: -0.774 ± 0.09

Question: With GAACAGCAAUAUUACGGGUC as the sequence, how does the “self-splicing fitness (ln)” value (30 °C) read?
Answer: -2.3 ± 0.19

Question: What about the “self-splicing fitness (ln)” value (37 °C) of the same sequence?
Answer: -3 ± 0.27

Question: Which “self-splicing fitness (ln)” value (30 °C) does the source give for GAACAGCAAUAUUACGGUCG here?
Answer: -1.17 ± 0.069

Question: What about the “self-splicing fitness (ln)” value (37 °C) of the same sequence?
Answer: -0.372 ± 0.098

Question: Which “self-splicing fitness (ln)” value (30 °C) does the source give for GAACAGCAAUAUUACGGUCU here?
Answer: -1.16 ± 0.086

Question: What about the “self-splicing fitness (ln)” value (37 °C) of the same sequence?
Answer: -0.205 ± 0.095

Question: Which “self-splicing fitness (ln)” value (30 °C) does the source give for GAACAGCAAUAUUACGUCUG here?
Answer: -2.54 ± 0.079

Question: And the “self-splicing fitness (ln)” value (37 °C)?
Answer: -0.775 ± 0.077

Question: Which “self-splicing fitness (ln)” value (30 °C) does the source give for GAACAGCAAUAUUACGUGAA here?
Answer: -0.968 ± 0.061

Question: And the “self-splicing fitness (ln)” value (37 °C)?
Answer: -0.396 ± 0.069

Question: Which “self-splicing fitness (ln)” value (30 °C) does the source give for GAACAGCAAUAUUACGUUUG here?
Answer: -2.2 ± 0.067

Question: And the “self-splicing fitness (ln)” value (37 °C)?
Answer: -0.632 ± 0.075

Question: With GAAGAGCAAUAUUACGAAUU as the sequence, how does the “self-splicing fitness (ln)” value (30 °C) read?
Answer: -3.24 ± 0.18

Question: What about the “self-splicing fitness (ln)” value (37 °C) of the same sequence?
Answer: -2.21 ± 0.23

Question: What does the source list for GAAGAGCAAUAUUACGACCU?
Answer: self-splicing fitness (ln) (30 °C): -1.45 ± 0.13; self-splicing fitness (ln) (37 °C): -0.296 ± 0.18

Question: Which “self-splicing fitness (ln)” value (30 °C) does the source give for GAAGAGCAAUAUUACGACUU here?
Answer: -0.765 ± 0.12

Question: What about the “self-splicing fitness (ln)” value (37 °C) of the same sequence?
Answer: 0.131 ± 0.14

Question: What does the source list for GAAGAGCAAUAUUACGAGCC?
Answer: self-splicing fitness (ln) (30 °C): -1.61 ± 0.24; self-splicing fitness (ln) (37 °C): -0.252 ± 0.36

Question: For GAAGAGCAAUAUUACGAUAC, which “self-splicing fitness (ln)” value (30 °C) is on record?
Answer: -2.75 ± 0.39

Question: Which results are given for GAAGAGCAAUAUUACGAUGA?
Answer: self-splicing fitness (ln) (30 °C): -3.03 ± 0.31; self-splicing fitness (ln) (37 °C): -1.57 ± 0.17

Question: With GAAGAGCAAUAUUACGCACA as the sequence, how does the “self-splicing fitness (ln)” value (30 °C) read?
Answer: -1.91 ± 0.16

Question: And the “self-splicing fitness (ln)” value (37 °C)?
Answer: -1.07 ± 0.14

Question: What does the source list for GAAGAGCAAUAUUACGCAUU?
Answer: self-splicing fitness (ln) (30 °C): -4.28 ± 0.2; self-splicing fitness (ln) (37 °C): -2.2 ± 0.2

Question: Which “self-splicing fitness (ln)” value (30 °C) does the source give for GAAGAGCAAUAUUACGCCGC here?
Answer: -2.05 ± 0.47

Question: With GAAGAGCAAUAUUACGGACC as the sequence, how does the “self-splicing fitness (ln)” value (30 °C) read?
Answer: -1.57 ± 0.14

Question: What about the “self-splicing fitness (ln)” value (37 °C) of the same sequence?
Answer: -0.884 ± 0.19

Question: Which results are given for GAAGAGCAAUAUUACGGGAA?
Answer: self-splicing fitness (ln) (30 °C): -3.54 ± 0.47; self-splicing fitness (ln) (37 °C): -1.72 ± 0.28

Question: For GAAGAGCAAUAUUACGGGGC, which “self-splicing fitness (ln)” value (30 °C) is on record?
Answer: -3.46 ± 0.28

Question: And the “self-splicing fitness (ln)” value (37 °C)?
Answer: -2.28 ± 0.26

Question: With GAAGAGCAAUAUUACGGGUC as the sequence, how does the “self-splicing fitness (ln)” value (30 °C) read?
Answer: -1.86 ± 0.27

Question: With GAAGAGCAAUAUUACGGGUU as the sequence, how does the “self-splicing fitness (ln)” value (30 °C) read?
Answer: -3.11 ± 0.2

Question: And the “self-splicing fitness (ln)” value (37 °C)?
Answer: -2.22 ± 0.2

Question: Which “self-splicing fitness (ln)” value (30 °C) does the source give for GAAGAGCAAUAUUACGGUAA here?
Answer: -2.16 ± 0.29

Question: And the “self-splicing fitness (ln)” value (37 °C)?
Answer: -1.01 ± 0.24

Question: What does the source list for GAAGAGCAAUAUUACGGUAG?
Answer: self-splicing fitness (ln) (30 °C): -3.51 ± 0.17; self-splicing fitness (ln) (37 °C): -3.01 ± 0.22

Question: With GAAGAGCAAUAUUACGGUGA as the sequence, how does the “self-splicing fitness (ln)” value (30 °C) read?
Answer: -2.47 ± 0.16

Question: And the “self-splicing fitness (ln)” value (37 °C)?
Answer: -1.02 ± 0.096

Question: Which “self-splicing fitness (ln)” value (30 °C) does the source give for GAAGAGCAAUAUUACGUCGC here?
Answer: -2.58 ± 0.28

Question: And the “self-splicing fitness (ln)” value (37 °C)?
Answer: 0.595 ± 0.21

Question: For GAAGAGCAAUAUUACGUGCG, which “self-splicing fitness (ln)” value (30 °C) is on record?
Answer: -2.87 ± 0.15

Question: And the “self-splicing fitness (ln)” value (37 °C)?
Answer: -2.03 ± 0.17

Question: For GAAGAGCAAUAUUACGUGCU, which “self-splicing fitness (ln)” value (30 °C) is on record?
Answer: -3.52 ± 0.22

Question: Which “self-splicing fitness (ln)” value (30 °C) does the source give for GAAGAGCAAUAUUACGUUAA here?
Answer: -2.65 ± 0.22

Question: What about the “self-splicing fitness (ln)” value (37 °C) of the same sequence?
Answer: -1.65 ± 0.2

Question: With GAAUAGCAAUAUUACGAACA as the sequence, how does the “self-splicing fitness (ln)” value (30 °C) read?
Answer: -0.419 ± 0.13

Question: And the “self-splicing fitness (ln)” value (37 °C)?
Answer: -0.622 ± 0.11

Question: Which “self-splicing fitness (ln)” value (30 °C) does the source give for GAAUAGCAAUAUUACGAACG here?
Answer: -1.64 ± 0.1

Question: And the “self-splicing fitness (ln)” value (37 °C)?
Answer: -0.336 ± 0.11

Question: With GAAUAGCAAUAUUACGACGU as the sequence, how does the “self-splicing fitness (ln)” value (30 °C) read?
Answer: -0.363 ± 0.11

Question: What about the “self-splicing fitness (ln)” value (37 °C) of the same sequence?
Answer: 0.265 ± 0.13

Question: Which “self-splicing fitness (ln)” value (30 °C) does the source give for GAAUAGCAAUAUUACGAGUU here?
Answer: -2.2 ± 0.084

Question: And the “self-splicing fitness (ln)” value (37 °C)?
Answer: -0.978 ± 0.093

Question: With GAAUAGCAAUAUUACGAUCA as the sequence, how does the “self-splicing fitness (ln)” value (30 °C) read?
Answer: -1.11 ± 0.12

Question: And the “self-splicing fitness (ln)” value (37 °C)?
Answer: 0.308 ± 0.11

Question: Which results are given for GAAUAGCAAUAUUACGAUCC?
Answer: self-splicing fitness (ln) (30 °C): -1.16 ± 0.14; self-splicing fitness (ln) (37 °C): -0.622 ± 0.15

Question: What does the source list for GAAUAGCAAUAUUACGAUUC?
Answer: self-splicing fitness (ln) (30 °C): -2.67 ± 0.14; self-splicing fitness (ln) (37 °C): -2.24 ± 0.2

Question: Which results are given for GAAUAGCAAUAUUACGCCGA?
Answer: self-splicing fitness (ln) (30 °C): -1.62 ± 0.31; self-splicing fitness (ln) (37 °C): 0.319 ± 0.22

Question: What does the source list for GAAUAGCAAUAUUACGCCGG?
Answer: self-splicing fitness (ln) (30 °C): -2.65 ± 0.32; self-splicing fitness (ln) (37 °C): -1.79 ± 0.24

Question: With GAAUAGCAAUAUUACGCGAU as the sequence, how does the “self-splicing fitness (ln)” value (30 °C) read?
Answer: -3.41 ± 0.2

Question: And the “self-splicing fitness (ln)” value (37 °C)?
Answer: -2.5 ± 0.19

Question: Which “self-splicing fitness (ln)” value (30 °C) does the source give for GAAUAGCAAUAUUACGCGUU here?
Answer: -3.4 ± 0.24

Question: And the “self-splicing fitness (ln)” value (37 °C)?
Answer: -1.37 ± 0.15

Question: With GAAUAGCAAUAUUACGCUCU as the sequence, how does the “self-splicing fitness (ln)” value (30 °C) read?
Answer: -1.58 ± 0.12

Question: What about the “self-splicing fitness (ln)” value (37 °C) of the same sequence?
Answer: -1.4 ± 0.14

Question: What does the source list for GAAUAGCAAUAUUACGGCUC?
Answer: self-splicing fitness (ln) (30 °C): 0.451 ± 0.09; self-splicing fitness (ln) (37 °C): 0.374 ± 0.14

Question: With GAAUAGCAAUAUUACGUCGA as the sequence, how does the “self-splicing fitness (ln)” value (30 °C) read?
Answer: -0.367 ± 0.11

Question: What about the “self-splicing fitness (ln)” value (37 °C) of the same sequence?
Answer: -0.794 ± 0.12

Question: What does the source list for GAAUAGCAAUAUUACGUUAA?
Answer: self-splicing fitness (ln) (30 °C): -2.56 ± 0.17; self-splicing fitness (ln) (37 °C): -1.9 ± 0.15

Question: What does the source list for GAAUAGCAAUAUUACGUUCA?
Answer: self-splicing fitness (ln) (30 °C): -1.04 ± 0.38; self-splicing fitness (ln) (37 °C): -0.336 ± 0.3

Question: Which results are given for GAAUAGCAAUAUUACGUUCU?
Answer: self-splicing fitness (ln) (30 °C): -3.24 ± 0.26; self-splicing fitness (ln) (37 °C): -1.82 ± 0.27

Question: What does the source list for GACAAGCAAUAUUACGAAAA?
Answer: self-splicing fitness (ln) (30 °C): -2.27 ± 0.24; self-splicing fitness (ln) (37 °C): -2.22 ± 0.31
